{"source": "paper PMC10397247", "key": {"APC9096-AA": {"biological_target": "T1, APC9096-AA", "T1 chain": "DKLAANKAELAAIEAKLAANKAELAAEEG", "assay": "two-hybrid library CCmax;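 also: natural log of median RNA to DNA barcode read ratio; higher means stronger binding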", "settings": "mean of both orientations"}, "APC4011-AA": {"biological_target": "T2, APC4011-AA", "T2 chain": "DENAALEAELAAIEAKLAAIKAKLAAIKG", "assay": "two-hybrid library CCmax", "settings": "mean of both orientations"}, "APC9319-AA": {"biological_target": "T3, APC9319-AA", "T3 chain": "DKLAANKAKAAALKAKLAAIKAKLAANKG", "assay": "two-hybrid library CCmax", "settings": "mean of both orientations"}, "APC5383-AA": {"biological_target": "T4, APC5383-AA", "T4 chain": "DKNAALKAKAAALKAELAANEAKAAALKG", "assay": "two-hybrid library CCmax", "settings": "mean of both orientations"}, "APC8910-AA": {"biological_target": "T5, APC8910-AA", "T5 chain": "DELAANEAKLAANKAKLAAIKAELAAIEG", "assay": "two-hybrid library CCmax", "settings": "mean of both orientations"}, "APC4264-AA": {"biological_target": "T6, APC4264-AA", "T6 chain": "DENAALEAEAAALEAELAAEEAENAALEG", "assay": "two-hybrid library CCmax", "settings": "mean of both orientations"}, "APC6108-AA": {"biological_target": "T7, APC6108-AA", "T7 chain": "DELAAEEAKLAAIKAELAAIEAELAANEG", "assay": "two-hybrid library CCmax", "settings": "mean of both orientations"}, "APC7099-AA": {"biological_target": "T8, APC7099-AA", "T8 chain": "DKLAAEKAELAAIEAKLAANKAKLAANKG", "assay": "two-hybrid library CCmax", "settings": "mean of both orientations"}, "APC3645-AA": {"biological_target": "T9, APC3645-AA", "T9 chain": "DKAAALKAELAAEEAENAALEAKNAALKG", "assay": "two-hybrid library CCmax"}, "APC8191-AA": {"biological_target": "T10, APC8191-AA", "T10 chain": "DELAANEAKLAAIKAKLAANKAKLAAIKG", "assay": "two-hybrid library CCmax", "settings": "mean of both orientations"}, "APC4436-AA": {"biological_target": "T11, APC4436-AA", "T11 chain": "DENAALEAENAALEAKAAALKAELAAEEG", "assay": "two-hybrid library CCmax", "settings": "mean of both orientations"}, "4H452-AA": {"biological_target": "T12, 4H452-AA", "T12 chain": "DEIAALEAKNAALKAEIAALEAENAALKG", "assay": "two-hybrid library CCmax", "settings": "mean of both orientations"}, "4H2931-AA": {"biological_target": "T13, 4H2931-AA", "T13 chain": "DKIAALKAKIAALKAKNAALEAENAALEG", "assay": "two-hybrid library CCmax", "settings": "mean of both orientations"}, "4H347-AA": {"biological_target": "T14, 4H347-AA", "T14 chain": "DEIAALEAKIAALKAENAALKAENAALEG", "assay": "two-hybrid library CCmax", "settings": "mean of both orientations"}, "4H3073-AA": {"biological_target": "T15, 4H3073-AA", "T15 chain": "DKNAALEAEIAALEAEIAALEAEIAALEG", "assay": "two-hybrid library CCmax", "settings": "mean of both orientations"}, "4H3438-AA": {"biological_target": "T16, 4H3438-AA", "T16 chain": "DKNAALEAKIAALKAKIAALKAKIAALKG", "assay": "two-hybrid library CCmax", "settings": "mean of both orientations"}, "GCN2_T": {"biological_target": "GCN2_T", "assay": "two-hybrid library CCmax"}, "4H_APH": {"biological_target": "T17, 4H_APH", "T17 chain": "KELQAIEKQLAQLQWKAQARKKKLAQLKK", "assay": "two-hybrid library CCmax", "settings": "mean of both orientations"}, "4H56-AA": {"biological_target": "T18, 4H56-AA", "T18 chain": "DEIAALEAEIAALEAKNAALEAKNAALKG", "assay": "two-hybrid library CCmax", "settings": "mean of both orientations"}, "4H2774-AA": {"biological_target": "T19, 4H2774-AA", "T19 chain": "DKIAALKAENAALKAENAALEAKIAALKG", "assay": "two-hybrid library CCmax", "settings": "mean of both orientations"}, "4H_GCN4": {"biological_target": "4H_GCN4", "sequence (chain, as listed by the source)": "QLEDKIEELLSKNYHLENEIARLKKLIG", "assay": "two-hybrid library CCmax", "settings": "mean of both orientations"}, "4H406-AA": {"biological_target": "T20, 4H406-AA", "T20 chain": "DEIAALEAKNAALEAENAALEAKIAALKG", "assay": "two-hybrid library CCmax", "settings": "mean of both orientations"}, "4H2732-AA": {"biological_target": "T21, 4H2732-AA", "T21 chain": "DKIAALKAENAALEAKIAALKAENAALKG", "assay": "two-hybrid library CCmax"}, "4H3001-AA": {"biological_target": "T22, 4H3001-AA", "T22 chain": "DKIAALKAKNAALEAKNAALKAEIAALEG", "assay": "two-hybrid library CCmax", "settings": "mean of both orientations"}, "4H3015-AA": {"biological_target": "T23, 4H3015-AA", "T23 chain": "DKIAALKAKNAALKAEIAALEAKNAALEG", "assay": "two-hybrid library CCmax", "settings": "mean of both orientations"}, "4H_BCR": {"biological_target": "T24, 4H_BCR", "T24 chain": "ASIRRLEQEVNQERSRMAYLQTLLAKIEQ", "assay": "two-hybrid library CCmax", "settings": "mean of both orientations"}, "4H40-bH": {"biological_target": "T25, 4H40-bH", "T25 chain": "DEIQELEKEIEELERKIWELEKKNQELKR", "assay": "two-hybrid library CCNG1"}, "4H492-bH": {"biological_target": "T26, 4H492-bH", "T26 chain": "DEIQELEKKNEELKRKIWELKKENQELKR", "assay": "two-hybrid library CCNG1"}, "4H3277-bH": {"biological_target": "T27, 4H3277-bH", "T27 chain": "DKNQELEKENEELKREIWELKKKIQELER", "assay": "two-hybrid library CCNG1"}, "4H741-bH": {"biological_target": "T28, 4H741-bH", "T28 chain": "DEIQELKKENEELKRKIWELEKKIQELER", "assay": "two-hybrid library CCNG1"}, "4H319-bH": {"biological_target": "T29, 4H319-bH", "T29 chain": "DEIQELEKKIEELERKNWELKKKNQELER", "assay": "two-hybrid library CCNG1"}, "4H477-bH": {"biological_target": "T30, 4H477-bH", "T30 chain": "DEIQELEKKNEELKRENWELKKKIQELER", "assay": "two-hybrid library CCNG1"}, "4H348-bH": {"biological_target": "T31, 4H348-bH", "T31 chain": "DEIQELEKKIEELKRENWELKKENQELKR", "assay": "two-hybrid library CCNG1"}, "4H349-bA": {"biological_target": "T32, 4H349-bA", "T32 chain": "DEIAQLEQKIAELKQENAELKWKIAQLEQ", "assay": "two-hybrid library CCNG1"}, "4H56-bA": {"biological_target": "T33, 4H56-bA", "T33 chain": "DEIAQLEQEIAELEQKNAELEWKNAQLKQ", "assay": "two-hybrid library CCNG1"}, "4H3381-bA": {"biological_target": "T34, 4H3381-bA", "T34 chain": "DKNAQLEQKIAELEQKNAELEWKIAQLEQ", "assay": "two-hybrid library CCNG1"}, "4H3297-bA": {"biological_target": "T35, 4H3297-bA", "T35 chain": "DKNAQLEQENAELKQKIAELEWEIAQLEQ", "assay": "two-hybrid library CCNG1"}, "4H949-bA": {"biological_target": "T36, 4H949-bA", "T36 chain": "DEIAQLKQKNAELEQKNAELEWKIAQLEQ", "assay": "two-hybrid library CCNG1"}, "4H932-bA": {"biological_target": "T37, 4H932-bA", "T37 chain": "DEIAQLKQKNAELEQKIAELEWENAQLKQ", "assay": "two-hybrid library CCNG1"}, "4H3364-bA": {"biological_target": "T38, 4H3364-bA", "T38 chain": "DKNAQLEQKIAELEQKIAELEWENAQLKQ", "assay": "two-hybrid library CCNG1"}, "4H796-bA": {"biological_target": "T39, 4H796-bA", "T39 chain": "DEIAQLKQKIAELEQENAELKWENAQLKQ", "assay": "two-hybrid library CCNG1"}, "4H730-bA": {"biological_target": "T40, 4H730-bA", "T40 chain": "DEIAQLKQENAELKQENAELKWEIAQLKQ", "assay": "two-hybrid library CCNG1"}}, "data": [{"binder": "DKAAALKAELAAEEAENAALEAKNAALKG", "note": "[APC3645-AA]", "values": [{"measurement": "interaction score", "setting": "APC9096-AA", "value": -1.71}, {"measurement": "interaction score", "setting": "APC4011-AA", "value": -1.34}, {"measurement": "interaction score", "setting": "APC9319-AA", "value": -1.55}, {"measurement": "interaction score", "setting": "APC5383-AA", "value": -1.51}, {"measurement": "interaction score", "setting": "APC8910-AA", "value": -1.79}, {"measurement": "interaction score", "setting": "APC4264-AA", "value": -1.56}, {"measurement": "interaction score", "setting": "APC6108-AA", "value": -1.68}, {"measurement": "interaction score", "setting": "APC7099-AA", "value": -1.63}, {"measurement": "interaction score", "setting": "APC3645-AA", "value": -1.12}, {"measurement": "interaction score", "setting": "APC8191-AA", "value": -1.7}, {"measurement": "interaction score", "setting": "APC4436-AA", "value": -2.1}]}, {"binder": "DKIAALKAENAALEAKIAALKAENAALKG", "note": "[4H2732-AA]", "values": [{"measurement": "interaction score", "setting": "4H452-AA", "value": 2.3}, {"measurement": "interaction score", "setting": "4H2931-AA", "value": -1.81}, {"measurement": "interaction score", "setting": "4H347-AA", "value": -1.49}, {"measurement": "interaction score", "setting": "4H3073-AA", "value": 0.0758}, {"measurement": "interaction score", "setting": "4H3438-AA", "value": -1.2}, {"measurement": "interaction score", "setting": "GCN2_T", "value": -1.15}, {"measurement": "interaction score", "setting": "4H_APH", "value": -1.5}, {"measurement": "interaction score", "setting": "4H56-AA", "value": -1.58}, {"measurement": "interaction score", "setting": "4H2774-AA", "value": -1.29}, {"measurement": "interaction score", "setting": "4H_GCN4", "value": -1.08}, {"measurement": "interaction score", "setting": "4H406-AA", "value": -1.22}, {"measurement": "interaction score", "setting": "4H2732-AA", "value": 0.324}, {"measurement": "interaction score", "setting": "4H3001-AA", "value": -1.46}, {"measurement": "interaction score", "setting": "4H3015-AA", "value": 1.14}, {"measurement": "interaction score", "setting": "4H_BCR", "value": -2.17}]}, {"binder": "DEIQELEKKIEELERKNWELKKKNQELER", "note": "[4H319-bH]", "values": [{"measurement": "interaction score", "setting": "4H40-bH", "value": -2.01}, {"measurement": "interaction score", "setting": "4H492-bH", "value": -0.172}, {"measurement": "interaction score", "setting": "4H3277-bH", "value": -0.168}, {"measurement": "interaction score", "setting": "4H741-bH", "value": 0.321}, {"measurement": "interaction score", "setting": "4H319-bH", "value": 1.04}, {"measurement": "interaction score", "setting": "4H477-bH", "value": -0.71}, {"measurement": "interaction score", "setting": "4H348-bH", "value": 0.143}]}, {"binder": "DKNAQLEQENAELKQKIAELEWEIAQLEQ", "note": "[4H3297-bA]", "values": [{"measurement": "interaction score", "setting": "4H349-bA", "value": -1.15}, {"measurement": "interaction score", "setting": "4H56-bA", "value": -0.874}, {"measurement": "interaction score", "setting": "4H3381-bA", "value": -0.995}, {"measurement": "interaction score", "setting": "4H3297-bA", "value": 1.19}, {"measurement": "interaction score", "setting": "4H949-bA", "value": -0.949}, {"measurement": "interaction score", "setting": "4H932-bA", "value": -0.454}, {"measurement": "interaction score", "setting": "4H3364-bA", "value": -0.887}, {"measurement": "interaction score", "setting": "4H796-bA", "value": -1.18}, {"measurement": "interaction score", "setting": "4H730-bA", "value": -0.992}]}]}
